Test results reported in PMC6168700 (2018).

T1: Full-length Rok1, His-tagged (Saccharomyces cerevisiae (strain ATCC …, UniProt P45818))
T1 chain: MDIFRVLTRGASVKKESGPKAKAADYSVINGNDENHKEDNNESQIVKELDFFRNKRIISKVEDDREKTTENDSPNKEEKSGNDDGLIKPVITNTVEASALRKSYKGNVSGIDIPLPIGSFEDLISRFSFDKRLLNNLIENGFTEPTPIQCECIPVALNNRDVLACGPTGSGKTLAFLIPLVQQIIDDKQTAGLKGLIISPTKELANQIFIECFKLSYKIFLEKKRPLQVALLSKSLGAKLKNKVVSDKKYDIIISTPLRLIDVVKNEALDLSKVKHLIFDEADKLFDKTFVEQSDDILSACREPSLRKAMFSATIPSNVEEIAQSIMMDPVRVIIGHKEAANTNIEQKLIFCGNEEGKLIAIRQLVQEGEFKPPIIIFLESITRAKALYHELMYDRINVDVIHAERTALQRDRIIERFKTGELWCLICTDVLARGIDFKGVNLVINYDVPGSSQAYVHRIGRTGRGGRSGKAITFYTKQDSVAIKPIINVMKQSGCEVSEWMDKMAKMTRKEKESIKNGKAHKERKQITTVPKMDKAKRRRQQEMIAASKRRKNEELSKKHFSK


Tests used:
[1] = molecular target: T2, Full-length Has1, His-tagged (Saccharomyces cerevisiae (strain ATCC …, UniProt Q03532)); experiment: Ni-NTA pull-down and co-expression, SDS-PAGE
T2 sequence (Q03532 whole entry): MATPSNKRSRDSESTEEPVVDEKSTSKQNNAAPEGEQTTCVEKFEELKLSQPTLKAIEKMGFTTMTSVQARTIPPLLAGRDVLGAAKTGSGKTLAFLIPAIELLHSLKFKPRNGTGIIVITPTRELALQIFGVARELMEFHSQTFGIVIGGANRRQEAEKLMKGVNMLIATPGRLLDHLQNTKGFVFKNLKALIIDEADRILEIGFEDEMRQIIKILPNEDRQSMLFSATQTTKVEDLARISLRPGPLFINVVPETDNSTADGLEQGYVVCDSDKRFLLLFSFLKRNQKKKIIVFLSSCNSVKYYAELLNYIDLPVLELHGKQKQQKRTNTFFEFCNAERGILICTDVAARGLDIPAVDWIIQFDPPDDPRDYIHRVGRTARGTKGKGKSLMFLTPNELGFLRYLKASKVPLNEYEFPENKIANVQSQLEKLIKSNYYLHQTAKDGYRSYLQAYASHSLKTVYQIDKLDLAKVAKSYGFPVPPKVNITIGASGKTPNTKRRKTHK

[2] = molecular target: T2, Full-length Has1, His-tagged; experiment: Ni-NTA pull-down, Coomassie SDS-PAGE
[3] = molecular target: T1, Full-length Rok1, His-tagged; experiment: Ni-NTA pull-down, Coomassie SDS-PAGE; 2 mM ATP present

| binding result [1] | binding result [2] | binding result [3] | Binder |
| --- | --- | --- | --- |
| no binding | – | – | Rrp5 (1400–1729), the TPR region alone (protein) GLSLSAGFDWTASILDQAQEEEESDQDQEDFTENKKHKHKRRKENVVQDKTIDINTRAPESVADFERLLIGNPNSSVVWMNYMAFQLQLSEIEKARELAERALKTINFREEAEKLNIWIAMLNLENTFGTEETLEEVFSRACQYMDSYTIHTKLLGIYEISEKFDKAAELFKATAKKFGGEKVSIWVSWGDFLISHNEEQEARTILGNALKALPKRNHIEVVRKFAQLEFAKGDPERGRSLFEGLVADAPKRIDLWNVYVDQEVKAKDKKKVEDLFERIITKKITRKQAKFFFNKWLQFEESEGDEKTIEYVKAKATEYVASHESQKADE |
| – | no binding | no binding | Rrp5 (1083–1343), the last 3 S1 domains only (protein) STIKVGDELPGRVLKIAEKYVLLDLGNKVTGISFITDALNDFSLTLKEAFEDKINNVIPTTVLSVDEQNKKIELSLRPATAKTRSIKSHEDLKQGEIVDGIVKNVNDKGIFVYLSRKVEAFVPVSKLSDSYLKEWKKFYKPMQYVLGKVVTCDEDSRISLTLRESEINGDLKVLKTYSDIKAGDVFEGTIKSVTDFGVFVKLDNTVNVTGLAHITEIADKKPEDLSALFGVGDRVKAIVLKTNPEKKQISLSLKASHFSKE |
